Consider one substance from patent US10154957B2, “Microneedle device having a peptide therapeutic agent and an amino acid and methods of making and using the same” (3M INNOVATIVE PROPERTIES COMPANY, priority 2011, dated 2018).

Data set [1] in a line: Stability of insulin in coating on flood-coated microneedle arrays stored at 40° C./96% RH (HPLC). Type of data set: physicochemical. The note with it: insulin 5 mg/mL in 0.1 N acetic acid. The procedure:
The protein or polypeptide content in the formulation coated on the microneedle arrays was determined using an Agilent 1100 HPLC system (Agilent Technologies, Wilmington, Del.) equipped with a binary pump, well-plated thermostated autosampler, thermostated column compartment, and a diode array UV detector. A Zorbax 300SB-C8 column (Agilent Technologies, Wilmington, Del.) having a 5 μm particle size and 2.1×150 mm inner diameter was used for the separations. The column was maintained at 50° C. The mobile phase consisted of two eluents. Eluent A was 0.1% TFA (trifluoroacetic acid) in water and eluent B was 0.1% TFA in acetonitrile (Spectrum Chemical, New Brunswick, N.J.). A linear gradient from 80/20 to 50/50 (A/B) was applied over 30 minutes. The flow rate was 0.4 mL/minute and the UV detection wavelength was set at 214 nm. The total run time was 34 minutes and the sample injection volume was 15 μL.
The pH of the sample formulation was 3.0-3.5. […] The pH of the control formulation was 3.0-3.5. Microneedle arrays were coated with either the sample or the control formulation. The coating was applied by dropwise addition of 50 μL of the formulation to the portion of the array defined by the octagon shaped pattern of microneedles. The flood coated arrays (both sample and control formulation coated) were dried in an oven at 35° C. for about 15 hours.
After drying, the coated arrays were placed in a storage chamber that was maintained at 40° C. and 96% relative humidity (RH). […] At the designated time point, an array was taken from the chamber and washed with 0.1 N acetic acid (1 mL) to remove the coating from the array. […] The arrays used as reference standards were stored in a refrigerator at about 4° C. and analyzed within one day of being prepared.
The same procedure as described in Example 5 was used with the exception that the sample formulation contained 12 mg/mL of L-arginine hydrochloride, instead of L-histidine monohydrochloride. The pH of the sample formulation was 3.0-3.5.

Assay in data set [2]: as above
Type of data set: physicochemical. The note with it: Amino Acid L-Histidine (His-HCl 12 mg/mL), insulin 5 mg/mL in 0.1 N acetic acid.

Take Insulin: the “Percent of Initial Insulin Content in the Coating” value (from here on “Percent of Initial Insulin Content”) in data set [1] (Amino Acid L-Arginine (Arg-HCl 12 mg/mL), Day 1 at 40° C./96% RH) stood at 75.4%; in data set [1] (Amino Acid L-Arginine (Arg-HCl 12 mg/mL), Day 3 at 40° C./96% RH), 45.9%; in data set [1] (Amino Acid L-Arginine (Arg-HCl 12 mg/mL), Day 7 at 40° C./96% RH), 27.1%; in data set [1] (Amino Acid L-Arginine (Arg-HCl 12 mg/mL), Initial) it was 100%; in data set [1] (Amino Acid None (control), Day 3 at 40° C./96% RH) it was 0%; in data set [1] (Amino Acid None (control), Day 7 at 40° C./96% RH), 0%. Besides, the “Percent of Initial Insulin Content” value in data set [1] (Amino Acid None (control), Day 14 at 40° C./96% RH) is 0%; in data set [1] (Amino Acid None (control), Initial) it was 100%; in data set [2] (Day 1 at 40° C./96% RH) it was 95.3%; in data set [2] (Day 3 at 40° C./96% RH) it was 93.5%; in data set [2] (Day 7 at 40° C./96% RH), 79.2%; in data set [2] (Day 14 at 40° C./96% RH), 34.9%. Besides, in data set [2] (Initial), the “Percent of Initial Insulin Content” value amounted to 100%.
